Assay results from doi:10.1101/2025.08.01.668162.
Like-named read-outs stand apart in the source and are kept apart here.

Assays:
[1] = target: SEL1L S658P (mouse knock-in) (mouse (endogenous in MEFs and liver)) (UniProt Q9Z2G6); test: co-IP
[2] = target: SEL1L S658P (mouse knock-in) (mouse (endogenous in MEFs and liver)) (UniProt Q9Z2G6); test: co-IP; remark: listed apart in the source

Sequence of UniProt Q9Z2G6 (Q9Z2G6 22-790, stated change not applied): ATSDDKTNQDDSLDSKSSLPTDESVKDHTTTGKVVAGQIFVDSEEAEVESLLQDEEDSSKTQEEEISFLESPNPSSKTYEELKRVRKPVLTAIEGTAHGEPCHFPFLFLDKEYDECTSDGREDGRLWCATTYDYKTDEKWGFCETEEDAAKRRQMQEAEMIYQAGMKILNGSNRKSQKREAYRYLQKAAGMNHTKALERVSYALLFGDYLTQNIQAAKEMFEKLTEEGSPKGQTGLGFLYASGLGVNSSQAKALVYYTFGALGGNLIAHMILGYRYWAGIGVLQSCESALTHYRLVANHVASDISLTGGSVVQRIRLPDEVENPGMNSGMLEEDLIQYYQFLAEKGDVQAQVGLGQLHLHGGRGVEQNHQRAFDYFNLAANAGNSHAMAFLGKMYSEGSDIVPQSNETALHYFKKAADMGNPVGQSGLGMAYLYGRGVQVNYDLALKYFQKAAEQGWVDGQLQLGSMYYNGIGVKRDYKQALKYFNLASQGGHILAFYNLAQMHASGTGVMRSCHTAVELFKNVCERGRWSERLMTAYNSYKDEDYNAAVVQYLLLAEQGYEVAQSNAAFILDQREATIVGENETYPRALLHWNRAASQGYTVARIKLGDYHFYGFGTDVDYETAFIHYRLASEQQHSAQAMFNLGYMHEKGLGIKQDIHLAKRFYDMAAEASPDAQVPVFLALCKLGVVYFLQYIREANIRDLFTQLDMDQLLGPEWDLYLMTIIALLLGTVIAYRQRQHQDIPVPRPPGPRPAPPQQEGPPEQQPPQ

“HRD1 (mouse) (from UniProt Q9DBY1 1-612) (natural protein)” was tested, and the percent reduction of co-precipitated HRD1 against WT SEL1L [1] was 80% and the percent reduction of co-precipitated HRD1 against WT SEL1L [2] was 60%.
